# Laboratory results: IntAct's records for PubMed 22089237
# B1: Alpha-1A adrenergic receptor (Homo sapiens), P35348 (parent)
# chain: MVFLSGNASDSSNCTQPPAPVNISKAILLGVILGGLILFGVLGNILVILSVACHRHLHSVTHYYIVNLAVADLLLTSTVLPFSAIFEVLGYWAFGRVFCNIWAAVDVLCCTASIMGLCIISIDRYIGVSYPLRYPTIVTQRRGLMALLCVWALSLVISIGPLFGWRQPAPEDETICQINEEPGYVLFSALGSFYLPLAIILVMYCRVYVVAKRESRGLKSGLKTDKSDSEQVTLRIHRKNAPAGGSGMASAKTKTHFSVRLLKFSREKKAAKTLGIVVGCFVLCWLPFFLVMPIGSFFPDFKPSETVFKIVFWLGYLNSCINPIIYPCSSQEFKKAFQNVLRIQCLCRKQSSKHALGYTLHPPSQAVEGQHKDMVRIPVGSRETFYRISKTDGVCEWKFFSSMPRGSARITVSKDQSSCTTARVRSKSFLQVCCCVGPSTPSLDKNHQVPTIKVHTISLSENGEEV
# Variants of: B1
# Conditions: with arrb1_rat Arrb1, P29066
# Sequence of arrb1_rat Arrb1, P29066 (P29066 whole entry): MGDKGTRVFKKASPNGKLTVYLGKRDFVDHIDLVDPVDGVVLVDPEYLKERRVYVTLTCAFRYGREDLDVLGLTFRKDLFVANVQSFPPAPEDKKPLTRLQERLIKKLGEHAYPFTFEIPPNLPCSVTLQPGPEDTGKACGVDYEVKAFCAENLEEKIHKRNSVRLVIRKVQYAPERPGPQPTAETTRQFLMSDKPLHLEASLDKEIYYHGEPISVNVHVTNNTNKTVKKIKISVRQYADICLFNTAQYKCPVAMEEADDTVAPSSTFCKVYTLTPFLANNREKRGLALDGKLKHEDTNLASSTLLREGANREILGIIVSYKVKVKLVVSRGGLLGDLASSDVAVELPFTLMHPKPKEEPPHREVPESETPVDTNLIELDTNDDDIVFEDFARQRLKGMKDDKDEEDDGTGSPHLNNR
row,Variant,effect of a mutation on the interaction
1,MVFLSGNASDSSNCTQPPAPVNISKAILLGVILGGLILFGVLGNILVILSVACHRHLHSVTHYYIVNLAVADLLLTSTVLPFSAIFEVLGYWAFGRVFCNIWAAVDVLCCTASIMGLCIISIDRYIGVSYPLRYPTIVTQRRGLMALLCVWALSLVISIGPLFGWRQPAPEDETICQINEEPGYVLFSALGSFYLPLAIILVMYCRVYVVAKRESRGLKSGLKTDKSDSEQVTLRIHRKNAPAGGSRMASAKTKTHFSVRLLKFSREKKAAKTLGIVVGCFVLCWLPFFLVMPIGSFFPDFKPSETVFKIVFWLGYLNSCINPIIYPCSSQEFKKAFQNVLRIQCLCRKQSSKHALGYTLHPPSQAVEGQHKDMVRIPVGSRETFYRISKTDGVCEWKFFSSMPRGSARITVSKDQSSCTTARVRSKSFLQVCCCVGPSTPSLDKNHQVPTIKVHTISLSENGEEV [G247R],increasing interaction strength
